Several values for one entry are separate records, joined by “and”; a condition that tells them apart may be missing. Equal entries are not always repeated. Blank lines part the entries; values can stand above or below the binder they belong to.
Assays:
[1] = target: cobalt substituted ADO (ADO-Co^2+), biotinylated, for SPR (human) (UniProt Q96SZ5); test: SPR; as a1, but single cycle kinetics (SCK) mode fit to a 1:1 binding model; ADO-Co^2+ immobilized
[2] = target: T1, ADO-H193D, biotinylated, for SPR (human, UniProt Q96SZ5 1-270, H193D, biotin (N terminally biotinylated)); test: SPR; Biacore T200; biotinylated ADO immobilized on a Biotin CAP chip (∼2500 to 3000 RU), peptide/protein substrates injected; 4 °C; 20 mM Hepes pH 7.5, 500 mM NaCl, 10 mM DTT, 0.1% tween-20; 50 μl/min; multicycle, equilibrium steady state affinity 1:1 binding model; details: both partners purified
T1 construct: 2-aminoethanethiol (cysteamine) dioxygenase (ADO), human, UniProt Q96SZ5, full length, H193D; Mutant with impaired iron retention (reduced metal occupancy by ICP-MS); source: E. coli Rosetta2(DE3), pQE80L-Navi construct, site-directed mutagenesis, purified (Ni-NTA, SEC); not shown: biotinylation tag (from the vector pQE80L-Navi), N-terminal, kept
T1 sequence (looked up): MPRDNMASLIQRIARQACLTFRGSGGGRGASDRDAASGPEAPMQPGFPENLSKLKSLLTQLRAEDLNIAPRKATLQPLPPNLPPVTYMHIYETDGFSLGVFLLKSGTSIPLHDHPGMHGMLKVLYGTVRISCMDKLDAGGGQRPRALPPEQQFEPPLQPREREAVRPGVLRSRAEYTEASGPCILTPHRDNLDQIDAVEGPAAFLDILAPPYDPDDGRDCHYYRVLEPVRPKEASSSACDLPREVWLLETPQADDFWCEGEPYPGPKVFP

[3] = target: T2, 2-aminoethanethiol (cysteamine) dioxygenase (ADO), biotinylated, for SPR (human, UniProt Q96SZ5 1-270, biotin (N terminally biotinylated; 0.2 mM biotin added at induction)); test: SPR; post-reconstitution with Fe2+
T2 chain: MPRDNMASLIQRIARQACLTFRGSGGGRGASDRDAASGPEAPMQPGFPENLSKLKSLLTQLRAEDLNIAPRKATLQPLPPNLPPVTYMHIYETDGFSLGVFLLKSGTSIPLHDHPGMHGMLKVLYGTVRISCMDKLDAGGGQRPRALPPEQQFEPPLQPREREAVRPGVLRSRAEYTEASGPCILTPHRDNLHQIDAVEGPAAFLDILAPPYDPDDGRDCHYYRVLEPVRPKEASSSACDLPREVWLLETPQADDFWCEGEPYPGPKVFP

[4] = target: T3, cobalt substituted ADO (ADO-Co^2+), biotinylated, for SPR (human, UniProt Q96SZ5 1-270, biotin (N terminally biotinylated)); test: SPR; single cycle kinetics
T3 chain: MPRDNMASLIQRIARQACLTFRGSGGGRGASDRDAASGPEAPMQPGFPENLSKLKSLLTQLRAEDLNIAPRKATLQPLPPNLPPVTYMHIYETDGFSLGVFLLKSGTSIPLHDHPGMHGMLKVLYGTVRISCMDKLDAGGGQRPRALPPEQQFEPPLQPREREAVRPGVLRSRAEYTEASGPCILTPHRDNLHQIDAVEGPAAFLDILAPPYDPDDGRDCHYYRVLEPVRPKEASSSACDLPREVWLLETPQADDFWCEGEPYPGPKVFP

[5] = target: T2, 2-aminoethanethiol (cysteamine) …; test: SPR; before treatment
[6] = target: ADO-H193D, biotinylated, for SPR (human, UniProt Q96SZ5 1-270, H193D, biotin (N terminally biotinylated)); test: SPR
[7] = target: T2, 2-aminoethanethiol (cysteamine) …; test: SPR; post-metal removal (phenanthroline/EDTA)
[8] = substrate: CC(C)C[C@H](NC(=O)CNC(=O)[C@H](C)NC(=O)[C@@H](N)CS)C(=O)N[C@@H](C)C(=O)N[C@@H](C)C(=O)N[C@@H](CC(C)C)C(=O)N1CCC[C@H]1C(=O)N[C@@H](Cc1c[nH]cn1)C(=O)N[C@@H](CO)C(=O)N[C@@H](CS)C(=O)N[C@@H](CC(C)C)C(=O)N[C@@H](CCC(=O)O)C(=O)N[C@@H](CCCNC(=N)N)C(N)=O; test: LC-MS enzyme activity assay (Nt-cys sulfinylation by ADO); format: biochemical, human; details: other: Michaelis-Menten, stopped LC-MS assay, 37 °C, atmospheric O2; three independent experiments; pH 7.5; 37.0 °C
Protocol: (§1) […] Otherwise stated, the reaction buffer contained 50 mM Tris pH 7.5, 50 mM NaCl, and 5 mM TCEP. The reactions were quenched by mixing the sample 1:10 (peptide) or 1:5 (protein) with 1% formic acid (v/v).
(§2) Peptide and protein samples were injected onto a Chromolith RP-18 Endcapped HPLC Columns (100–2 mm; Merck) and Discovery BIO Wide Pore C5 HPLC Column (Supelco), respectively, heated to 40 °C and eluted at 0.3 ml/min using a gradient of 95% deionized water supplemented with 0.1% (v/v) formic acid to 95% acetonitrile. Oxidation was monitored by an ultra high-performance liquid chromatography MS using ExionLC AD (Sciex) and SelexION (Sciex) mass spectrometer operated in a positive electrospray TOF (+ESI-TOF) mode. Instrument parameters, data acquisition and data processing were controlled by Analyst software (Sciex; https://sciex.com/products/software/analyst-software). The peptide data processing was performed using Skyline software (MacCoss Lab Software; https://skyline.ms/project/home/software/Skyline/begin.view) ([38]). All figures and parameters were generated using GraphPad Prism 9 (GraphPad; https://www.graphpad.com/features).

[9] = substrate: CC(C)C[C@H](NC(=O)CNC(=O)[C@H](CCCCN)NC(=O)[C@@H](N)CS)C(=O)N[C@@H](C)C(=O)N[C@@H](C)C(=O)N[C@@H](CC(C)C)C(=O)N1CCC[C@H]1C(=O)N[C@@H](Cc1c[nH]cn1)C(=O)N[C@@H](CO)C(=O)N[C@@H](CS)C(=O)N[C@@H](CC(C)C)C(=O)N[C@@H](CCC(=O)O)C(=O)N[C@@H](CCCNC(=N)N)C(N)=O; test: as above; format: biochemical, human; details: other: Michaelis-Menten, stopped LC-MS assay, atmospheric O2, three independent experiments, pH 7.5
Protocol: as §1, §2

[10] = substrate: CC(C)C[C@H](NC(=O)[C@H](C)NC(=O)[C@H](CCCCN)NC(=O)[C@@H](N)CS)C(=O)N[C@@H](C)C(=O)N[C@@H](C)C(=O)N[C@@H](CC(C)C)C(=O)N1CCC[C@H]1C(=O)N[C@@H](Cc1c[nH]cn1)C(=O)N[C@@H](CO)C(=O)N[C@@H](CS)C(=O)N[C@@H](CC(C)C)C(=O)N[C@@H](CCC(=O)O)C(=O)N[C@@H](CCCNC(=N)N)C(N)=O; test: as above; format: biochemical, human; details: other: Michaelis-Menten, stopped LC-MS assay, 37 °C, atmospheric O2; three independent experiments; pH 7.5; 37.0 °C
Protocol: as §1, §2

[11] = target: T2, 2-aminoethanethiol (cysteamine) …; test: SPR

B2: native RGS5 peptide (first 14 amino acids of the methionine excised N terminus of RGS5) (peptide, UniProt O15539 2-15, looked up)
peptide: CKGLAALPHSCLER
notes: regulator of G-protein signaling 5 (RGS5), first 14 amino acids of the methionine excised N terminus: residues 2-15 with the initiating methionine denoted as 1; source: synthetic peptide (SPPS, HPLC purified)
Kd [3]: 330 nM | fold increase in binding affinity relative to native ADO [1]: 10 fold | Kd [4]: 27 nM | Kd [5]: 370 nM | Kd [6]: 3300 nM | fold weaker KD than with WT ADO [2]: ~13 fold | Kd [7]: 320 nM

B3: ADO (Homo sapiens) (protein)
chain: MPRDNMASLIQRIARQACLTFRGSGGGRGASDRDAASGPEAPMQPGFPENLSKLKSLLTQLRAEDLNIAPRKATLQPLPPNLPPVTYMHIYETDGFSLGVFLLKSGTSIPLHDHPGMHGMLKVLYGTVRISCMDKLDAGGGQRPRALPPEQQFEPPLQPREREAVRPGVLRSRAEYTEASGPCILTPHRDNLHQIDAVEGPAAFLDILAPPYDPDDGRDCHYYRVLEPVRPKEASSSACDLPREVWLLETPQADDFWCEGEPYPGPKVFP
notes: Full-length human ADO (UniProt ID: Q96SZ5) was cloned; made in house; host or cells: Rosetta2(DE3) Escherichia coli
Km [8]: 1970 µM | kcat [8]: 100 s⁻¹ | kcat/Km [8]: 0.51 x 10^5 s^-1M^-1 | Km ([9]; 25 °C, 25.0 °C): 62 µM and 125 µM | kcat ([9]; 25 °C, 25.0 °C): 7 s⁻¹ and 19 s⁻¹ | kcat/Km ([9]; 25 °C, 25.0 °C): 1.1 x 10^5 s^-1M^-1 and 1.5 x 10^5 s^-1M^-1 | Km ([9]; 37 °C, 37.0 °C): 83 µM | kcat ([9]; 37 °C, 37.0 °C): 22 s⁻¹ | Km [10]: 33 µM | kcat [10]: 8 s⁻¹ | kcat/Km [10]: 2.4 x 10^5 s^-1M^-1

Continued, values first:

fold increase in binding affinity relative to native ADO [1]: 10 fold | fold weaker KD than with WT ADO [2]: ~77 fold
B1: native IL32 peptide (first 14 amino acids of the methionine excised N terminus of interleukin 32) (peptide, UniProt P24001 2-15, looked up)
peptide: CFPKVLSDDMKKLK
notes: interleukin 32 (IL32), first 14 amino acids of the methionine excised N terminus: residues 2-15 with the initiating methionine denoted as 1; source: synthetic peptide (SPPS, HPLC purified)

Kd [11]: 240 nM
Binder: CKGLAALPASCLER [RGS5-H10A]

— publication PMC11406360, “The enzymatic oxygen sensor cysteamine dioxygenase binds its protein substrates through their N-termini” (The Journal of Biological Chemistry, 2024)
